According to publication PMC6468292:

T1: FOXA2-DBD (human, UniProt Q9Y261-2 163-264)
T1 sequence: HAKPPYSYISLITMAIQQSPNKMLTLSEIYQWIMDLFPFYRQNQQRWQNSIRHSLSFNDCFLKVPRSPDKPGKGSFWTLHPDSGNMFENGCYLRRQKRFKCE

T2: FOXM1-DBD (human, UniProt Q08050 222-360)
T2 sequence: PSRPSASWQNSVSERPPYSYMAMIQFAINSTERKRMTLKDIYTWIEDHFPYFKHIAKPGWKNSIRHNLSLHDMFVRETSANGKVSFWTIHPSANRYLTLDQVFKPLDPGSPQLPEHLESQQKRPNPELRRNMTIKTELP

T3: FOXC2-DBD (human, UniProt Q99958 72-171)
T3 sequence: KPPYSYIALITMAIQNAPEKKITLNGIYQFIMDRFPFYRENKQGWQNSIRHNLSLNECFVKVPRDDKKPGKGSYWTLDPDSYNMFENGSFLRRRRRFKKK

B1: GTACACA site (ITC) (dsDNA)
DNA 1: TGCAAAATGTACACAAGACT
DNA 2: AGTCTTGTGTACATTTTGCA
B2: DNA3 (GTACACA, palindromic) (dsDNA)
DNA 1: ATTTGTGTACACAAAT
DNA 2: ATTTGTGTACACAAAT
B3: DBE2 (GTAAACA) (dsDNA)
DNA 1: CAAAATGTAAACAAGA
DNA 2: TCTTGTTTACATTTTG
B4: ACAAATA site (DNA4, ITC) (dsDNA)
DNA 1: TGCAAAATACAAATAAGACT
DNA 2: AGTCTTATTTGTATTTTGCA

Key:
FOXA2-DBD = target: T1, FOXA2-DBD; assay: ITC
FOXM1-DBD = target: T2, FOXM1-DBD; assay: ITC
FOXC2-DBD [1] = target: T3, FOXC2-DBD; assay: ITC
FOXC2-DBD [2] = target: T3, FOXC2-DBD; assay: EMSA
FOXC2-DBD [3] = target: T3, FOXC2-DBD; assay: crystal structure

Row | Binder | Kd (FOXA2-DBD) | Kd (FOXM1-DBD) | Kd (FOXC2-DBD [1]) | binding result (FOXC2-DBD [2]) | binding result (FOXC2-DBD [3])
1 | B1 | 0.99 µM | 8.3 µM | 2.22 µM |  | 
2 | B2 |  |  |  | binds | 
3 | B3 |  |  |  |  | binds
4 | B4 | 7.54 µM | 2.07 µM |  |  | 
